Patent US20240109974A1 (SHANDONG SIMCERE BIOPHARMACEUTICAL, published 2024)
Substitutions are numbered along the chain they refer to. Blank lines part the entries; values can stand above or below the binder they belong to.

What was measured:
[1] = target: T1, human TNFR2 on the surface of CHO-TNFR2 cells (human, UniProt P20333 23-461); assay: flow cytometry on CHO-TNFR2 cells; EC50, reference itself
T1 construct: whole, on cells
T1 sequence (looked up): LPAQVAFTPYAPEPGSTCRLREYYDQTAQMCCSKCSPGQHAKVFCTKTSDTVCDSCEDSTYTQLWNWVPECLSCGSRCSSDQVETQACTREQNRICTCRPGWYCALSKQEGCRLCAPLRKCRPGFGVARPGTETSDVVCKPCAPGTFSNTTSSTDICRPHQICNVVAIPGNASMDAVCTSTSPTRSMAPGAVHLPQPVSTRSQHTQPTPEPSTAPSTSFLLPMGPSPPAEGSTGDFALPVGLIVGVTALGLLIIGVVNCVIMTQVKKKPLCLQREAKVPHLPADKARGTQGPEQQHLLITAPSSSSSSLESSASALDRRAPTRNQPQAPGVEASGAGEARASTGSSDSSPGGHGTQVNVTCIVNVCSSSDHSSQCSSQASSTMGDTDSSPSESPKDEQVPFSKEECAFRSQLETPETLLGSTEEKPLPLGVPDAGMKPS
Procedure: The transfected full-length plasmid of human TNFR2 was purchased from Sino Biological (Cat #HG10417-UT, NCBI Ref Seq: NM_001066.2). The experiment was conducted at a cell density within 80%. The cell medium was discarded; the cells were rinsed with PBS, and digested with 1 ml trypsin for 2 minutes; the digestion was stopped with a Ham's F12 complete medium containing 10% FBS, and then a cell suspension was made. The cell suspension was counted, and then an appropriate amount of cell suspension was centrifuged at 350×g; the supernatant was discarded; a corresponding volume of blocking solution (10% FBS+PBS) at a density of 1×10⁷ cells/ml was added to resuspend the cells, and the mixture was incubated at 4° C. for 30 minutes. After the incubation, the mixture was centrifuged at 350×g to remove the supernatant, and the cells were resuspended in a staining buffer (2% FBS+PBS) to a density of 2×10⁶ cells/ml, and spread onto a 96-well plate, with 50 μl of cell suspension added to each well for later use. The antibody was diluted with PBS for 10-fold gradient dilution from the highest concentration of 20 μg/m (twice the concentration); the diluted antibody was added to the well containing 50 μl of cell suspension, and placed on a microplate shaker for shaking at 500 rpm for 1 minute, so that the antibody was fully mixed with the cells; the mixture was incubated at 4° C. for 1 h. After the incubation, the cells were washed twice with the staining buffer, with 100 μl per well, and centrifuged at 350-g for 5 minutes, and the supernatant was discarded. […] After the staining, similarly, the cells were washed twice with the staining buffer; finally, the cells were resuspended in 200 μl of staining buffer; signals were detected by a flow cytometer (Thermo Attune NxT). […] The binding curve of an antibody was drawn with antibody concentration as the abscissa and corresponding mean fluorescence intensity (MFI) fold as the ordinate, and fitted with four parameters (GraphPad Prism9) to calculate the EC50 value.

[2] = target: T1, human TNFR2 on the surface of CHO-TNFR2 …; assay: flow cytometry on CHO-TNFR2 cells; AUC against 219-WT
Procedure: (§1) The transfected full-length plasmid of human TNFR2 was purchased from Sino Biological (Cat #HG10417-UT, NCBI Ref Seq: NM_001066.2). The experiment was conducted at a cell density within 80%. The cell medium was discarded; the cells were rinsed with PBS, and digested with 1 ml trypsin for 2 minutes; the digestion was stopped with a Ham's F12 complete medium containing 10% FBS, and then a cell suspension was made. The cell suspension was counted, and then an appropriate amount of cell suspension was centrifuged at 350×g; the supernatant was discarded; a corresponding volume of blocking solution (10% FBS+PBS) at a density of 1×10⁷ cells/ml was added to resuspend the cells, and the mixture was incubated at 4° C. for 30 minutes. After the incubation, the mixture was centrifuged at 350×g to remove the supernatant, and the cells were resuspended in a staining buffer (2% FBS+PBS) to a density of 2×10⁶ cells/ml, and spread onto a 96-well plate, with 50 μl of cell suspension added to each well for later use. The antibody was diluted with PBS for 10-fold gradient dilution from the highest concentration of 20 μg/m (twice the concentration); the diluted antibody was added to the well containing 50 μl of cell suspension, and placed on a microplate shaker for shaking at 500 rpm for 1 minute, so that the antibody was fully mixed with the cells; the mixture was incubated at 4° C. for 1 h. After the incubation, the cells were washed twice with the staining buffer, with 100 μl per well, and centrifuged at 350-g for 5 minutes, and the supernatant was discarded. The PE goat anti-Human IgG Fc antibody (ebioscience, Cat #12-4998-82) was diluted 250-fold with the staining buffer, with a volume of 100 μl per well added to the washed cell wells; the mixture was mixed evenly, and stained at 4° C. for 30 minutes. After the staining, similarly, the cells were washed twice with the staining buffer; finally, the cells were resuspended in 200 μl of staining buffer; signals were detected by a flow cytometer (Thermo Attune NxT). The stronger the signal, the stronger the binding ability of an antibody to TNFR2. The binding curve of an antibody was drawn with antibody concentration as the abscissa and corresponding mean fluorescence intensity (MFI) fold as the ordinate, and fitted with four parameters (GraphPad Prism9) to calculate the EC50 value.

[3] = target: T1, human TNFR2 on the surface of CHO-TNFR2 …; assay: flow cytometry on CHO-TNFR2 cells; EC50 against 219-WT
Procedure: as §1

[4] = target: T1, human TNFR2 on the surface of CHO-TNFR2 …; assay: competition flow cytometry on CHO-TNFR2 cells, competitor TNFα-biotin; AUC against 219-WT
Procedure: (§2) CHO stable cells highly expressing human TNFR2 were used for the experiment (the same as CHO-TNFR2 in Example 4). The CHO-TNFR2 cells were digested, washed twice with DPBS, then stained with Live/Dead (L/D) (20 minutes at room temperature), and plated at a density of 1×10⁵ cells/50 μl/well. A test anti-TNFR2 antibody was diluted to 6 μg/ml with a staining buffer as the starting concentration: the antibody was subjected to 3.33-fold gradient dilution, with a total of 7 concentration points. The diluted antibody was added to the plated cells at 50 μl/well, and the mixture was mixed well by gentle pipetting, and incubated at 4° C. for 30 minutes. Then the diluted 100 ng/ml of human TNFα-biotin was added at 100 μl/well, and the mixture was mixed well by gentle pipetting, and then incubated at 4° C. for 30 minutes. The mixture was washed twice with a staining buffer, and then 0.12 μg/ml PE-streptavidin (BioLegend, Cat #405204) was added at 100 μl/well; the resulting mixture was incubated at 4° C. for 30 minutes. The mixture was washed twice with a staining buffer, and then 150 μl of staining buffer was added to resuspend the cells; signals were detected by a flow cytometer (Thermo Attune NxT). The inhibitory curve of an antibody was drawn with antibody concentration as the abscissa and corresponding MFI value as the ordinate, and fitted with four parameters (GraphPad Prism9) to calculate the IC50 value. The smaller the IC50 value, the stronger the ability of an antibody to inhibit the binding of human TNFα to human TNFR2. The blocking effect of a humanized antibody was normalized to its corresponding human-murine chimeric WT antibody. The higher the percentage value, the better the inhibitory effect of the humanized antibody.

[5] = target: T1, human TNFR2 on the surface of CHO-TNFR2 …; assay: competition flow cytometry on CHO-TNFR2 cells, competitor TNFα-biotin; AUC against 001-WT
Procedure: as §2

B1: 219-WT (antibody, V domains shown)
VH: EVQLQESGAELVRPGASVKLSCKASGYSFTNYWMNWVKQRPGQGLEWIGMIHPSDTETRLNQNFKDKATLTVDKSSSTSYMQLSSPTSEDSAVYYCARGEGLGAARSVSMDYWGQGTTVTVSS
VL: DILMTQSPSSLSASLGDRVTISCRASQDISNYLNWYQQKPDGTVKVLIYYTAILHSGVPSRFSGSGSGTDYSLTISNLEQEDIATYFCQQGNTLPWTFGGGTKLEIK
notes: Human-murine chimeric wild-type molecule
- % Relative activity (WT antibody/test antibody) [1]: 100%

B2: 219-Hu3 (antibody, V domains shown)
VH: QVQLVQSGAEVKKPGSSVKVSCKASGYSFTNYWMNWVRQAPGQGLEWMGMIHPSDTETRLNQNFKDRVTITADKSTSTAYMELSSLRSEDTAVYYCARGEGLGAARSVSMDYWGQGTLVTVSS
VL: B1 VL with L3Q, L15V, S22T, V46L, N77S, E79Q, Q80P, I83F, G100Q, L104V
notes: also called VH5 + VL5
- % Relative activity (Test antibody/WT antibody) [2]: 96.4%
- % Relative activity (WT antibody/test antibody) [3]: 145%
- % Relative activity (WT antibody/test antibody) [4]: 98.5%

B4: 219-Hu2 (antibody, V domains shown)
VH: B2 VH with R67K, V68A
VL: B1 VL with L3Q, L15V, S22T, V46L, N77S, E79Q, Q80P, I83F, G100Q, L104V
notes: also called VH4 + VL5
- % Relative activity (Test antibody/WT antibody) [2]: 103%
- % Relative activity (WT antibody/test antibody) [3]: 97.1%
- % Relative activity (WT antibody/test antibody) [4]: 102%

B5: 219-Hu1 (antibody, V domains shown)
VH: B2 VH with S16A, G44R, A72R, K74T, T76A
VL: B1 VL with L3Q, L15V, S22T, V46L, N77S, E79Q, Q80P, I83F, G100Q, L104V
notes: also called VH3 + VL5
- % Relative activity (Test antibody/WT antibody) [2]: 110%
- % Relative activity (WT antibody/test antibody) [3]: 100%
- % Relative activity (WT antibody/test antibody) [4]: 102%

B6: 219-Hu5 (antibody, V domains shown)
VH: B2 VH with A72V
VL: B1 VL with L3Q, L15V, S22T, V46L, N77S, E79Q, Q80P, I83F, G100Q, L104V
notes: also called VH7 + VL5
- % Relative activity (Test antibody/WT antibody) [2]: 93.3%
- % Relative activity (WT antibody/test antibody) [3]: 147%
- % Relative activity (WT antibody/test antibody) [4]: 109%

B7: 001-WT (antibody, V domains shown)
VH: EVQLQESGGGLVQPGGSLNLSCAASGFAFSTYDLSWVRQTPEKRLEWVAYINNGGISTYYSDTVKGRFTISRDNAKNTLYLQMSSLKSEDTAMYYCVRGPFYGSANYFDYWGQGTTVTVSS
VL: EIVMTQSPASLSLSVGETVTITCRTSESIYSNLPWYQQKQGKSPQLLVYDATKLAEGVPSRFSGSESGTQYSLKINSLQSEDFGTYYCQHFWVTPWTFGGGTKLEIK
notes: Human-murine chimeric wild-type molecule; also called human-murine chimeric antibody WT of #001
- % Relative activity (WT antibody/test antibody) [1]: 100%

B8: 001-Hu5 (antibody, V domains shown)
VH: B7 VH with Q5V, N19R, T40A, E42G, R44G, S84N, K87R, S88A, M93V, T116L
VL: DIQMTQSPSSLSASVGDRVTITCRTSESIYSNLPWYQQKPGKSPKLLVYDATKLAEGVPSRFSGSGSGTDYTLTISSLQPEDFATYYCQHFWVTPWTFGQGTKVEIK
notes: Humanized form of #001; also called VH1 + VL4
- % Relative activity (WT antibody/test antibody) [5]: 93.1%

B9: 001-Hu1 (antibody, V domains shown)
VH: B7 VH with Q5V, N19R, T40A, E42G, R44G, S84N, K87R, S88A, M93V, T116L
VL: B8 VL with S43A, V48L
notes: Humanized form of #001; also called VH1 + VL1
- % Relative activity (WT antibody/test antibody) [5]: 97.4%

Further lines, results first:

- % Relative activity (Test antibody/WT antibody) [2]: 95.6%
- % Relative activity (WT antibody/test antibody) [3]: 142%
- % Relative activity (WT antibody/test antibody) [4]: 108%
B3: 219-Hu4 (antibody, V domains shown)
VH: B2 VH with R38K, M48I, R67K, V68A, I70L, A72V
VL: B1 VL with L3Q, L15V, S22T, V46L, N77S, E79Q, Q80P, I83F, G100Q, L104V
notes: also called VH6 + VL5

- % Relative activity (WT antibody/test antibody) [5]: 97.8%
B10: 001-Hu3 (antibody, V domains shown)
VH: B7 VH with Q5V, N19R, T40A, E42G, R44G, S84N, K87R, S88A, M93V, T116L
VL: B8 VL with S43A, V48I
notes: Humanized form of #001; also called VH1 + VL3

- % Relative activity (WT antibody/test antibody) [5]: 95.8%
B11: 001-Hu2 (antibody, V domains shown)
VH: EVQLVESGGGLVQPGGSLRLSCAASGFAFSTYDLSWVRQAPGKGLEWVAYINNGGISTYYSDTVKGRFTISRDNAKNSLYLQMNSLRAEDTAVYYCVRGPFYGSANYFDYWGQGTLVTVSS
VL: B8 VL with V48I, Y71F
notes: Humanized form of #001; also called VH2 + VL2

- % Relative activity (WT antibody/test antibody) [5]: 93.7%
B12: 001-Hu4 (antibody, V domains shown)
VH: B11 VH
VL: B8 VL
notes: Humanized form of #001; also called VH2 + VL4

- % Relative activity (WT antibody/test antibody) [1]: 100%
B13: 224-WT (antibody, V domains shown)
VH: EVQLQESGPEIVKPGASVKLSCTASGFNNKDIYMHWVKQRPEQGLEWIGRIDPATGNTKHDPKFQDKATLSSDTSSNTAYLQFSSLTSEDTAVYYCAHSPYGDFGAMDYWGQGTTVTVSS
VL: DIQMTQSPAIMSASLGERVTMTCTASSSVSSNYLHWYQQKPGSSPKLWIYSTSNLPSGVPARFSGSGSGTSYSLTISSMEAEDAATYYCHQYHRSPWTFGGGTKLEIK
notes: Human-murine chimeric wild-type molecule; also called human-murine chimeric antibody WT of #224
